# Measured values reported in patent US20060008891A1, “Cathepsin G-related peptides as modulators of formylpeptide receptors (FPR)” (The Government of USA as repersented by the Secretary, …, priority 2004, published 2006).
# Values joined by “and” are separate entries in the source; they are usually repeats but may differ in a detail not shown here. Equal entries are not always repeated.
# Tests used:
# FPR [1] = target: T1, FPR (Homo sapiens, UniProt P21462); test: 125I-CaG binding to ETFR cells; settings: LIGAND program
# T1 construct: expressed in transfected cells; host or cells: Rat basophilic leukemia (RBL) cells, stably transfected (ETFR cells); gift of H. Ali and R. Snyderman, Duke University
# T1 sequence (P21462 1-350): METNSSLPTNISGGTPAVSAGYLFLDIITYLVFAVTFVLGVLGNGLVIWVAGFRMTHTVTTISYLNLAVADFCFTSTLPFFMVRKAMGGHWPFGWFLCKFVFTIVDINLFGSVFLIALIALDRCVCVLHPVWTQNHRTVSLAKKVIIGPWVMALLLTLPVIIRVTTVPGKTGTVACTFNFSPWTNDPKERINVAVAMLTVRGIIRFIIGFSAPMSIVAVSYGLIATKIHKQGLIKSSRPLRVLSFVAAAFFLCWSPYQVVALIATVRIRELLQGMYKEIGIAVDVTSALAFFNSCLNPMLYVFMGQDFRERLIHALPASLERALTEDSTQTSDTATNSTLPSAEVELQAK
# Experimental: (§1) CaG was iodinated with a chrolamine-T method (Lofstrand Labs, Gaithersburg, Md.) with a specific activity of […] protein. Duplicate samples of ETFR cells or the parental RBL cells (2×10^6 cells in 200 μl RPMI 1640 containing 1% bovine serum albumin, 25 mM Hepes, and 0.05% NaN3) were incubated with 25 nM ^125I-CaG, in the presence of increasing concentrations of unlabeled ligands. After incubation and rotation at room temperature for 1 h, the cells were pelleted through a 10% sucrose/PBS cushion for 1 min at 10,000 g. The supernatant was removed and the radioactivity associated with cell pellets was measured in a γ counter (CliniGamma, Pharmacia Biotech Inc.). The binding data were analyzed with a Macintosh computer-aided program LIGAND (Dr. P. Munson, Division of Computer Research and Technology, NIH, Bethesda, Md.).
# CHI-39 = test: Chemotaxis of HEK293 cells transfected with chimeric receptor CHI-39; assay type: cell-based, human; settings: N-terminus of FPR replaced by FPRL1 sequences
# Experimental: Human PBMC were isolated from leukopacks obtained through the courtesy of Transfusion Medicine Department, National Institutes of Health Clinical Center (Bethesda, Md.) by Ficoll-Hypaque density gradient centrifugation. Monocytes were purified from human PBMC by Percoll gradient to yield>90% pure preparations. […] H. Ali and R. Snyderman, Duke University (Durham, N.C.) and maintained in the presence of 0.8 mg/ml geneticin (G418, Life Technologies, Rockville, Md.) in DMEM supplemented with 10% FCS. B. Chemotaxis assay Migration of phagocytes and ETFR cells was assessed using a 48-well microchemotaxis chamber (Neuroprobe, Cabin John, Md.) as previously described (Hu et al. (2001) J Leukoc Biol 70 15512). […] After incubation at 37° C. in humidified air with 5% CO2 (60 min for neutrophils, 90 min for monocytes, 4.5 h for ETFR cells), the filter was removed and stained, and the cells migrating across the filter were counted with light microscopy. […]
# The chimeric receptor was stably transfected into HEK293 cells (a human embryo kidney cell line) and the chemotactic activity of CaG on the transfected cells was measured and compared to the chemotactic activity of CaG on […] cells transfected with wild type FPR, using the assay for chemotaxis described in Example IB. […]
# FPR [2] = target: T1, FPR; test: 3[H]-fMLF binding competition on monocytes and ETFR cells; settings: 3 nM 3[H]-fMLF
# Excerpt: The cells were then filtered onto Whatman paper discs, which were air-dried and measured for […].
# parental RBL cells = test: 125I-CaG binding to parental RBL cells; set-up: species or system rat; settings: 25 nM 125I-CaG
# Experimental: as §1
# Akt = test: Phosphorylation of Akt in ETFR cells (Western blot); assay type: cell-based, rat
# Experimental: ETFR cells were plated in Petri dishes and cultured in DMEM at 37° C. in humidified 5% CO2 atmosphere for 48 h. After further culture in serum-free DMEM overnight, the cells were treated with stimulants for indicated time periods. The reaction was stopped by adding 1 ml ice-cold PBS, and the cells were lysed in 1×SDS lysis buffer (62.5 mM Tris-HCl, 2% w/v SDS, 10% glycerol, 50 mM DTT, pH 6.8) and harvested into tubes for sonication. Proteins (50 μg for each sample) were resolved by SDS-PAGE and transferred onto nitrocellulose membranes (Bio-Rad, Hercules, Calif.). The membranes were blocked for 2 h at room temperature in 3% non-fat milk prepared in Tris-buffered saline-T (10 mM Tris-HCl, pH 7.5, 150 mM NaCl, 0.1% Tween 20) and probed with anti-p-ERK1/2, p-p38 MAPK, or p-Akt (1:1000) at room temperature for 1-2 h or at 4° C. overnight. The membranes were then washed and incubated with horseradish peroxidase-conjugated secondary antibodies diluted in Tris-buffered saline-T for 1 h at room temperature. The immune complexes on the membranes were visualized using ECL reagents. Total ERK1/2, p38 MAPK, and Akt were visualized by stripping the same membrane and probing with antibodies against total ERK1/2, p38 MAPK, and Akt.
# FPR [3] = target: T1, FPR; test: Chemotaxis assay, RBL cells transfected with FPR (ETFR cells); assay type: cell-based
# Experimental: Human PBMC were isolated from leukopacks obtained through the courtesy of Transfusion Medicine Department, National Institutes of Health Clinical Center (Bethesda, Md.) by Ficoll-Hypaque density gradient centrifugation. Monocytes were purified from human PBMC by Percoll gradient to yield>90% pure preparations. […] H. Ali and R. Snyderman, Duke University (Durham, N.C.) and maintained in the presence of 0.8 mg/ml geneticin (G418, Life Technologies, Rockville, Md.) in DMEM supplemented with 10% FCS. B. Chemotaxis assay Migration of phagocytes and ETFR cells was assessed using a 48-well microchemotaxis chamber (Neuroprobe, Cabin John, Md.) as previously described (Hu et al. (2001) J Leukoc Biol 70 15512). Briefly, different concentrations of stimulants were placed in the wells of the lower compartment of the chamber, and 50 μl cells (1.5×10^6 cells/ml for monocyte and neutrophil, 1×10^6 ETFR cells/ml) were added to the wells of the upper compartment. The lower and upper compartments were separated by either a 5-μm (for monocyte) or a 10-μm pore size, collagen-coated (for ETFR cells) polycarbonate filter (Osmonics, Livermore, Calif.). After incubation at 37° C. in humidified air with 5% CO2 (60 min for neutrophils, 90 min for monocytes, 4.5 h for ETFR cells), the filter was removed and stained, and the cells migrating across the filter were counted with light microscopy. The results are presented as the mean number of cells (±SD) in three high power fields (HPFs). For analysis of cross-desensitization, cells were pretreated with indicated reagents for 1 h at 37° C. After thorough washing with cold medium (RPMI 1640, 1% BSA), the cells were resuspended and assayed. To measure the effect of various signaling inhibitors, unless otherwise indicated, the cells were pre-incubated at 37° C. for 60 min with the inhibitors, and were then added to the upper wells of the chemotaxis chamber.
substance,measurement,setting,value
"CaG: Cathepsin G, serine protease purified from neutrophil granules, purchased from Athens Research & Technology",Kd of 125I-CaG binding,FPR [1],approximately 2 μg/ml
same,chemotactic activity on CHI-39-transfected HEK293 cells,CHI-39,exhibit robust migration in response to CaG
same,"IC50, displacement of 3[H]-fMLF binding",FPR [2],2.5 µg/mL
same,specific binding of 125I-CaG to parental RBL cells,parental RBL cells,no measurable levels of specific binding
same,time to activation of Akt,Akt,1 to 5 min
same,chemotactic response of ETFR cells,FPR [3]; ETFR cells,marked and dose-dependent chemotactic response
same,concentration range potently chemotactic,FPR [3]; ETFR cells,4 to 400 nM
same,optimal concentration to induce ETFR cell migration,FPR [3]; ETFR cells,5 µg/mL
same,concentration required to elicit optimal cell migration,"FPR [3]; FPR-expressing cells, cell type not specified",5-10 μg/ml and 200-400 nM
